Experimental data: patent US20110091994A1, “Methods for Screening Compounds for Treating and/or Preventing an Hepatitis C Virus Infection” (priority 2008, published 2011)
Like-named read-outs stand apart in the source and are kept apart here.

What was measured:
HCV proteins = molecular target: T1, HCV proteins (Hepatitis C virus genotype 1b, UniProt Q9WMX2); assay: Validation by Y2H pairwise matrices; type: binding;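 further: yeast two-hybrid pairwise tests of interactions first found in Y2H screens of HCV bait proteins against human cDNA libraries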
T1 construct: expressed in transfected cells

[1] = molecular target: T2, HCV ORFs (Gal4-DB fusions) (Hepatitis C virus genotype 1b, UniProt Q9WMX2); type: binding, HCV genotype 1b, isolate con1; conditions: human protein as prey
T2 construct: expressed in transfected cells; host or cells: Saccharomyces cerevisiae MAV203 (IMAP1) / AH109 (IMAP2)

[2] = tested on: HCV ORFs (Gal4-DB fusions); type: binding, HCV genotype 1b, isolate con1; conditions: human protein listed by gene symbol; the value names the HCV protein it interacts with
[3] = validation of interaction with HCV protein NS3
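Wherever IMAP Y2H IMAP1 (number of IST) is given: yeast two-hybrid screens using HCV genotype 1b proteins fused to Gal4-DB as baits against prey cDNA libraries from human spleen and foetal brain, IMAP1 via transformation and IMAP2 via mating.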
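Wherever Interaction with viral protein is given: yeast two-hybrid screens using HCV genotype 1b proteins fused to Gal4-DB as baits against prey cDNA libraries from human spleen and foetal brain, IMAP1 via transformation and IMAP2 via mating.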

B1: PLSCR1 (protein, UniProt O15162 1-318, looked up)
Phospholipid scramblase 1: MDKQNSQMNASHPETNLPVGYPPQYPPTAFQGPPGYSGYPGPQVSYPPPPAGHSGPGPAGFPVPNQPVYNQPVYNQPVGAAGVPWMPAPQPPLNCPPGLEYLSQIDQILIHQQIELLEVLTGFETNNKYEIKNSFGQRVYFAAEDTDCCTRNCCGPSRPFTLRIIDNMGQEVITLERPLRCSSCCCPCCLQEIEIQAPPGVPIGYVIQTWHPCLPKFTIQNEKREDVLKISGPCVVCSCCGDVDFEIKSLDEQCVVGKISKHWTGILREAFTDADNFGIQFPLDLDVKMKAVMIGACFLIDFMFFESTGSQEQKSGVW
Q: For B1, which Y2H matrices (HCV proteins; validation of interaction with HCV protein CORE) is on record?
A: +

Q: And the “IMAP Y2H IMAP1 (number of IST)” value ([1]; HCV protein CORE as bait)?
A: 1

Q: And the “Interaction with viral protein” value [2]?
A: CORE

B2: THAP1 (protein, UniProt Q9NVV9 1-213, looked up)
THAP domain-containing …: MVQSCSAYGCKNRYDKDKPVSFHKFPLTRPSLCKEWEAAVRRKNFKPTKYSSICSEHFTPDCFKRECNNKLLKENAVPTIFLCTEPHDKKEDLLEPQEQLPPPPLPPPVSQVDAAIGLLMPPLQTPVNLSVFCDHNYTVEDTMHQRKRIHQLEQQVEKLRKKLKTAQQRCRRQERQLEKLKEVVHFQKEKDDVSERGYVILPNDYFEIVEVPA
Q: With B2 as the molecule, how does the Y2H matrices (HCV proteins; [3]) read?
A: +

Q: And the “IMAP Y2H IMAP1 (number of IST)” value ([1]; HCV protein NS3 as bait)?
A: 1

Q: And the “Interaction with viral protein” value [2]?
A: NS3

B3: SPOCK3 (protein, UniProt Q9BQ16 22-436, looked up)
Testican-3: AAAAVAAAGGRSDGGNFLDDKQWLTTISQYDKEVGQWNKFRDEVEDDYFRTWSPGKPFDQALDPAKDPCLKMKCSRHKVCIAQDSQTAVCISHRRLTHRMKEAGVDHRQWRGPILSTCKQCPVVYPSPVCGSDGHTYSFQCKLEYQACVLGKQISVKCEGHCPCPSDKPTSTSRNVKRACSDLEFREVANRLRDWFKALHESGSQNKKTKTLLRPERSRFDTSILPICKDSLGWMFNRLDTNYDLLLDQSELRSIYLDKNEQCTKAFFNSCDTYKDSLISNNEWCYCFQRQQDPPCQTELSNIQKRQGVKKLLGQYIPLCDEDGYYKPTQCHGSVGQCWCVDRYGNEVMGSRINGVADCAIDFEISGDFASGDFHEWTDDEDDEDDIMNDEDEIEDDDEDEGDDDDGGDDHDVYI
Q: With B3 as the molecule, how does the Y2H matrices (HCV proteins; [3]) read?
A: +

Q: And the “IMAP Y2H IMAP1 (number of IST)” value ([1]; HCV protein NS3 as bait)?
A: 1

Q: What about the “Interaction with viral protein” value [2] of the same molecule?
A: NS3

B4: SSX2IP (protein, UniProt Q9Y2D8 1-614, looked up)
Afadin- and …: MGDWMTVTDPGLSSESKTISQYTSETKMSPSSLYSQQVLCSSIPLSKNVHSFFSAFCTEDNIEQSISYLDQELTTFGFPSLYEESKGKETKRELNIVAVLNCMNELLVLQRKNLLAQENVETQNLKLGSDMDHLQSCYSKLKEQLETSRREMIGLQERDRQLQCKNRNLHQLLKNEKDEVQKLQNIIASRATQYNHDMKRKEREYNKLKERLHQLVMNKKDKKIAMDILNYVGRADGKRGSWRTGKTEARNEDEMYKILLNDYEYRQKQILMENAELKKVLQQMKKEMISLLSPQKKKPRERVDDSTGTVISDVEEDAGELSRESMWDLSCETVREQLTNSIRKQWRILKSHVEKLDNQVSKVHLEGFNDEDVISRQDHEQETEKLELEIQQCKEMIKTQQQLLQQQLATAYDDDTTSLLRDCYLLEEKERLKEEWSLFKEQKKNFERERRSFTEAAIRLGLERKAFEEERASWLKQQFLNMTTFDHQNSENVKLFSAFSGSSDWDNLIVHSRQPQKKPHSVSNGSPVCMSKLTKSLPASPSTSDFCQTRSCISEHSSINVLNITAEEIKPNQVGGECTNQKWSVASRPGSQEGCYSGCSLSYTNSHVEKDDLP
Q: Which results are given for B4?
A: Y2H matrices (HCV proteins; [3]): +; IMAP Y2H IMAP1 (number of IST) ([1]; HCV protein NS3 as bait): 3; Interaction with viral protein [2]: NS3

B5: USHBP1 (protein, UniProt Q8N6Y0 1-703, looked up)
Harmonin-binding protein …: MSARATRPRSRRGRHAPPGELDPVAESSEEVEAASGSSKPSFAPPPVSSGLEQLGPMEEVSGQGLGSRTDKKMDGGSGRELASAPEVPHKPAVEAHQAPEAALQYKETVPPGNGAPDVFQTLQHTLSSLEAAAAAWRHQPPSHSGPMEFEGTSEGGAGSLGKQEGAGSCQREAARLAERNAWLRLALSSREDELVRTQASLEAIRAEKETLQKEVQELQDSLLRLEPCPHLSHNQAGGSGSGSSSSEADREPWETQDSFSLAHPLLRRLRSHSSTQILGSLPNQPLSPEMHIMEAQMEQLRGSIEKLKCFNRLLSAVLQGYKGRCEGLSMQLGQREAEATALHLALQYSEHCEEAYRVLLALREADSGAGDEAPMSDLQAAEKEAWRLLAQEEAAMDAGAQQNPQPSPEGSSVDKPTPQEVAFQLRSYVQRLQERRSLMKILSEPGPTLAPMPTVPRAEAMVQAILGTQAGPALPRLEKTQIQQDLVAAREALADLMLRLQLVRREKRGLELREAALRALGPAHVLLLEQLRWERAELQAGGANSSGGHSSGGGSSGDEEEWYQGLPAVPGGTSGIDGGQVGRAWDPEKLAQELAASLTRTLDLQEQLQSLRRELEQVAQKGRARRSQSAELNRDLCKAHSALVLAFRGAHRKQEEQRRKLEQQMALMEAQQAEEVAVLEATARALGKPRPPLPPPQLGDTFL
Q: How did the Y2H matrices (HCV proteins; [3]) turn out when B5 was run?
A: +

Q: And the “IMAP Y2H IMAP1 (number of IST)” value ([1]; HCV protein NS3 as bait)?
A: 1

Q: What about the “Interaction with viral protein” value [2] of the same molecule?
A: NS3

B6: TBC1D2B (protein, UniProt Q9UPU7 1-963, looked up)
TBC1 domain family member 2B: MPGAGARAEEGGGGGEGAAQGAAAEPGAGPAREPARLCGYLQKLSGKGPLRGYRSRWFVFDARRCYLYYFKSPQDALPLGHLDIADACFSYQGPDEAAEPGTEPPAHFQVHSAGAVTVLKAPNRQLMTYWLQELQQKRWEYCNSLDMVKWDSRTSPTPGDFPKGLVARDNTDLIYPHPNASAEKARNVLAVETVPGELVGEQAANQPAPGHPNSINFYSLKQWGNELKNSMSSFRPGRGHNDSRRTVFYTNEEWELLDPTPKDLEESIVQEEKKKLTPEGNKGVTGSGFPFDFGRNPYKGKRPLKDIIGSYKNRHSSGDPSSEGTSGSGSVSIRKPASEMQLQVQSQQEELEQLKKDLSSQKELVRLLQQTVRSSQYDKYFTSSRLCEGVPKDTLELLHQKDDQILGLTSQLERFSLEKESLQQEVRTLKSKVGELNEQLGMLMETIQAKDEVIIKLSEGEGNGPPPTVAPSSPSVVPVARDQLELDRLKDNLQGYKTQNKFLNKEILELSALRRNAERRERDLMAKYSSLEAKLCQIESKYLILLQEMKTPVCSEDQGPTREVIAQLLEDALQVESQEQPEQAFVKPHLVSEYDIYGFRTVPEDDEEEKLVAKVRALDLKTLYLTENQEVSTGVKWENYFASTVNREMMCSPELKNLIRAGIPHEHRSKVWKWCVDRHTRKFKDNTEPGHFQTLLQKALEKQNPASKQIELDLLRTLPNNKHYSCPTSEGIQKLRNVLLAFSWRNPDIGYCQGLNRLVAVALLYLEQEDAFWCLVTIVEVFMPRDYYTKTLLGSQVDQRVFRDLMSEKLPRLHGHFEQYKVDYTLITFNWFLVVFVDSVVSDILFKIWDSFLYEGPKVIFRFALALFKYKEEEILKLQDSMSIFKYLRYFTRTILDARKLISISFGDLNPFPLRQIRNRRAYHLEKVRLELTELEAIREDFLRERDTSPDKGELVSDEEEDT
Q: What does the source list for B6?
A: Y2H matrices (HCV proteins; [3]): +; IMAP Y2H IMAP1 (number of IST) ([1]; HCV protein NS3 as bait): 1; Interaction with viral protein [2]: NS3

B7: TRIM23 (protein, UniProt P36406 1-574, looked up)
E3 ubiquitin-protein ligase …: MATLVVNKLGAGVDSGRQGSRGTAVVKVLECGVCEDVFSLQGDKVPRLLLCGHTVCHDCLTRLPLHGRAIRCPFDRQVTDLGDSGVWGLKKNFALLELLERLQNGPIGQYGAAEESIGISGESIIRCDEDEAHLASVYCTVCATHLCSECSQVTHSTKTLAKHRRVPLADKPHEKTMCSQHQVHAIEFVCLEEGCQTSPLMCCVCKEYGKHQGHKHSVLEPEANQIRASILDMAHCIRTFTEEISDYSRKLVGIVQHIEGGEQIVEDGIGMAHTEHVPGTAENARSCIRAYFYDLHETLCRQEEMALSVVDAHVREKLIWLRQQQEDMTILLSEVSAACLHCEKTLQQDDCRVVLAKQEITRLLETLQKQQQQFTEVADHIQLDASIPVTFTKDNRVHIGPKMEIRVVTLGLDGAGKTTILFKLKQDEFMQPIPTIGFNVETVEYKNLKFTIWDVGGKHKLRPLWKHYYLNTQAVVFVVDSSHRDRISEAHSELAKLLTEKELRDALLLIFANKQDVAGALSVEEITELLSLHKLCCGRSWYIQGCDARSGMGLYEGLDWLSRQLVAAGVLDVA
Q: How did the Y2H matrices (HCV proteins; [3]) turn out when B7 was run?
A: +

Q: And the “IMAP Y2H IMAP1 (number of IST)” value ([1]; HCV protein NS3 as bait)?
A: 5

Q: What about the “Interaction with viral protein” value [2] of the same molecule?
A: NS3

B8: SPON1 (protein, UniProt Q9HCB6 29-807, looked up)
Spondin-1: FSDETLDKVPKSEGYCSRILRAQGTRREGYTEFSLRVEGDPDFYKPGTSYRVTLSAAPPSYFRGFTLIALRENREGDKEEDHAGTFQIIDEEETQFMSNCPVAVTESTPRRRTRIQVFWIAPPAGTGCVILKASIVQKRIIYFQDEGSLTKKLCEQDSTFDGVTDKPILDCCACGTAKYRLTFYGNWSEKTHPKDYPRRANHWSAIIGGSHSKNYVLWEYGGYASEGVKQVAELGSPVKMEEEIRQQSDEVLTVIKAKAQWPAWQPLNVRAAPSAEFSVDRTRHLMSFLTMMGPSPDWNVGLSAEDLCTKECGWVQKVVQDLIPWDAGTDSGVTYESPNKPTIPQEKIRPLTSLDHPQSPFYDPEGGSITQVARVVIERIARKGEQCNIVPDNVDDIVADLAPEEKDEDDTPETCIYSNWSPWSACSSSTCDKGKRMRQRMLKAQLDLSVPCPDTQDFQPCMGPGCSDEDGSTCTMSEWITWSPCSISCGMGMRSRERYVKQFPEDGSVCTLPTEETEKCTVNEECSPSSCLMTEWGEWDECSATCGMGMKKRHRMIKMNPADGSMCKAETSQAEKCMMPECHTIPCLLSPWSEWSDCSVTCGKGMRTRQRMLKSLAELGDCNEDLEQVEKCMLPECPIDCELTEWSQWSECNKSCGKGHVIRTRMIQMEPQFGGAPCPETVQRKKCRIRKCLRNPSIQKLRWREARESRRSEQLKEESEGEQFPGCRMRPWTAWSECTKLCGGGIQERYMTVKKRFKSSQFTSCKDKKEIRACNVHPC
Q: Which Y2H matrices (HCV proteins; [3]) does the source give for B8 here?
A: +

Q: And the “IMAP Y2H IMAP1 (number of IST)” value ([1]; HCV protein NS3 as bait)?
A: 1

Q: What about the “Interaction with viral protein” value [2] of the same molecule?
A: NS3

B9: SRPX2 (protein, UniProt O60687 24-465, looked up)
Sushi repeat-containing …: TWYAGSGYYPDESYNEVYAEEVPQAPALDYRVPRWCYTLNIQDGEATCYSPKGGNYHSSLGTRCELSCDRGFRLIGRRSVQCLPSRRWSGTAYCRQMRCHALPFITSGTYTCTNGVLLDSRCDYSCSSGYHLEGDRSRICMEDGRWSGGEPVCVDIDPPKIRCPHSREKMAEPEKLTARVYWDPPLVKDSADGTITRVTLRGPEPGSHFPEGEHVIRYTAYDRAYNRASCKFIVKVQVRRCPTLKPPQHGYLTCTSAGDNYGATCEYHCDGGYDRQGTPSRVCQSSRQWSGSPPICAPMKINVNVNSAAGLLDQFYEKQRLLIISAPDPSNRYYKMQISMLQQSTCGLDLRHVTIIELVGQPPQEVGRIREQQLSANIIEELRQFQRLTRSYFNMVLIDKQGIDRDRYMEPVTPEEIFTFIDDYLLSNQELTQRREQRDICE
Q: For B9, which Y2H matrices (HCV proteins; [3]) is on record?
A: +

Q: And the “IMAP Y2H IMAP1 (number of IST)” value ([1]; HCV protein NS3 as bait)?
A: 1

Q: And the “Interaction with viral protein” value [2]?
A: NS3
